Legend:
[1] = Volume mean particle diameter by dynamic light scattering particle size analyzer; type: physicochemical
Protocol: The volume mean particle diameter of liposomes in the examplesandthecomparativeexamplesdescribedbelowwasmeasured by the following method.
The W1/O emulsion was diluted with a chloroform/hexane mixed solvent (volume ratio: 4/6, the specific gravity was made equal to that of the inner aqueous phase) to 10 times, then a particle size distribution was measured with a dynamic light scattering nanotrack particle size analyzer (UPA-EX150, manufactured by Nikkiso Co., Ltd.), and based on this particle size distribution, a volume mean particle diameter was calculated.
As for the volume mean particle diameter of the specific dispersing agent which forms molecular aggregates, a liposome dispersion (also referred to as a “suspension” hereinafter) prepared in each of the following examples was subjected to the measurement as it was, using the same device. That is to say, a suspension of liposome particles prepared was diluted with a phosphoric acid buffer saline solution (PBS) to 25 times, then a particle size distribution was measured using a dynamic light scattering nanotrack particle size analyzer (UPA-EX150, manufactured by Nikkiso Co., Ltd.), and based on this particle size distribution, a volume mean particle diameter was calculated.

[2] = in an aqueous solvent; background statement; cited from earlier work

## sodium caseinate
[1]; solution containing only casein having a higher concentration
  particle size distribution of associated substance of molecular aggregates: 150 nm
[1]; solution containing only the dispersing agent
  main particle size distribution (volume mean particle diameter): 15 nm
[2]
  volume mean particle diameter of molecular aggregates (submicelles): about 15 nm
  volume mean particle diameter of particles of associated molecular aggregates: 100 to 200 nm
